Results on 1 substance are retold here after US20070065439A1.

This assay concerns the target type I IL-1 receptor (IL-1R) (UniProt P14778). Nature of the assay: cell-based or functional assay.

Chain of type I IL-1 receptor (IL-1R) (P14778 18-569 limits assumed): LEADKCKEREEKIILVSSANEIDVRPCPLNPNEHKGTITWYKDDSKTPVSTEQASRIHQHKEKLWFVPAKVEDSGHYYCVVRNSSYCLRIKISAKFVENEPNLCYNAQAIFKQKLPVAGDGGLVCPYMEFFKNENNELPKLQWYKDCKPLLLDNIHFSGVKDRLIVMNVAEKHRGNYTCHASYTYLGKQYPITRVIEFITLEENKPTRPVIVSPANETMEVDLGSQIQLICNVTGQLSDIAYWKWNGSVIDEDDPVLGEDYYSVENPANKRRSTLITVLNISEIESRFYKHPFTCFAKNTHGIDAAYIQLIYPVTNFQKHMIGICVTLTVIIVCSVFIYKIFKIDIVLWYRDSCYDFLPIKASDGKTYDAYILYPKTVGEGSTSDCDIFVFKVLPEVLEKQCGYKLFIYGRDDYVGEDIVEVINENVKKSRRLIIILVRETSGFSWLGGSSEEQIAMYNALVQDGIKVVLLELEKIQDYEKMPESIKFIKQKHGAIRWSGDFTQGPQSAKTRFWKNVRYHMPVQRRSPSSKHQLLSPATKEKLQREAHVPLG

“anakinra (KINERET) (from UniProt P18510 26-177) (ligand)” showed an EC50, inhibition of IL-1β-induced IL-6 production in MRC-5 cells of 0.077 nM and an EC50, inhibition of IL-1β-induced IL-8 production in human whole blood of 0.984 nM.
